Legend:
PSA reporter gene = settings: exogenously transfected, AR-negative PC-3 cells, presence or absence of R1881
Description: PC-3 cells were transfected with pEGFP-AR and pEGFP-AR-V7 to express the prototype AR or AR-V7 and examined for the localization of GFP-tagged AR proteins in the presence or absence of 5 nmol/L R1 881. […] PC-3 cells were transfected with vector control (EGFP), a LBD-truncated AR mutant (EGFP-Q640X), AR-V7 (EGFP-AR-V7), and prototype AR (EGFP-AR) and subjected to luciferase assays and Western blot analysis following culturing in the presence or absence of R1 881. […] LNCaP cells were transfected with pcDNA-AR-V7 to express the untagged AR-V7 protein or the control pcDNA vector and cultured with or without 10 nmol/L R1 881 before being harvested for Western blot analysis or RNA extraction for expression microarray analysis. The genes shown were the top 20 ranked genes by fold induction following R1 881 treatment in pcDNA empty vector-transfected LNCaP cells. Expression ratios of the test sample versus the common reference (pcDNA empty vector-transfected LNCaP without R1 881) were represented by red (>1) and green colors (<1).
pEGFP-AR and pEGFP-Q640X, which contain the full-length prototype AR and AR Q640X LBD-truncated mutant cDNA, were kind gifts of Dr. Jocelyn Céraline (Université Strasbourg, Strasbourg, France). The cDNA encoding the full-length AR-V7 was inserted into the pEGFP-C3 vector to express the GFP-AR-V7 fusion protein. […]

LNCaP cells = assay: MTS cell growth assay of transfected LNCaP cells; assay type: cell-based, human; settings: charcoal stripped serum, absence or presence of 0.5 nM R1881
Procedure: LNCaP cells were transfected by AR-V7 and the control vector. A. Cell growth in medium supplemented with charcoal stripped serum (CSS) in absence or presence of 0.5 nM R1881 were monitored by MTS assay. Ectopic expression of AR-V7 in LNCaP cells was confirmed by western blot analysis (B). As shown the growth rates of AR-V7 expressing cells surpassed those of parental cells cultured in the presence of synthetic androgen R1881.

[1] = tested on: androgen-responsive genes (KLK3, KLK2, NKX3-1, FKBP5, TMPRSS2); settings: LNCaP cells, absence of androgens
Description: LNCaP cells were transfected with pcDNA-AR-V7 to express the untagged AR-V7 protein or the control pcDNA vector and cultured with or without 10 nmol/L R1 881 before being harvested for Western blot analysis or RNA extraction for expression microarray analysis. The genes shown were the top 20 ranked genes by fold induction following R1 881 treatment in pcDNA empty vector-transfected LNCaP cells. Expression ratios of the test sample versus the common reference (pcDNA empty vector-transfected LNCaP without R1 881) were represented by red (>1) and green colors (<1).

B1: AR-V7: androgen receptor variant lacking the ligand binding domain, SEQ ID NO: 8, expressed from transfected cDNA (protein)
chain: MEVQLGLGRVYPRPPSKTYRGAFQNLFQSVREVIQNPGPRHPEAASAAPPGASLLLLQQQQQQQQQQQQQQQQQQQQQQQETSPRQQQQQQGEDGSPQAHRRGPTGYLVLDEEQQPSQPQSALECHPERGCVPEPGAAVAASKGLPQQLPAPPDEDDSAAPSTLSLLGPTFPGLSSCSADLKDILSEASTMQLLQQQQQEAVSEGSSSGRAREASGAPTSSKDNYLGGTSTISDNAKELCKAVSVSMGLGVEALEHLSPGEQLRGDCMYAPLLGVPPAVRPTPCAPLAECKGSLLDDSAGKSTEDTAEYSPFKGGYTKGLEGESLGCSGSAAAGSSGTLELPSTLSLYKSGALDEAAAYQSRDYYNFPLALAGPPPPPPPPHPHARIKLENPLDYGSAWAAAAAQCRYGDLASLHGAGAAGPGSGSPSAAASSSWHTLFTAEEGQLYGPCGGGGGGGGGGGGGGGGGGGGGGGEAGAVAPYGYTRPPQGLAGQESDFTAPDVWYPGGMVSRVPYPSPTCVKSEMGPWMDSYSGPYGDMRLETARDHVLPIDYYFPPQKTCLICGDEASGCHYGALTCGSCKVFFKRAAEGKQKYLCASRNDCTIDKFRRKNCPSCRLRKCYEAGMTLGEKFRVGNCKHLKMTRP
PSA reporter gene expression (PSA reporter gene): induced PSA reporter gene expression in an androgen-independent manner
cell growth (LNCaP cells): promotes androgen independent growth
induction of androgen-responsive genes [1]: induced canonical androgen-responsive genes

Source: US10894986B2, “Compositions and methods for treating or preventing prostate cancer and for detecting androgen receptor variants” (The Johns Hopkins University, priority 2008, dated 2021)
